{"source": "paper PMC3032639", "key": {"[1]": {"target": "TraB C-terminal domain (TraBCT) (E. coli (plasmid pKM101))", "experiment": "SEC"}, "[2]": {"target": "TraB C-terminal domain (TraBCT) (E. coli (plasmid pKM101))", "experiment": "SAXS; beamline ID02 (ESRF), buffer GFsol, 20°C; TraBCT 2.1-8.2 mg/ml, LvhB4 2-8.9 mg/ml; molecular mass from forward scattering I(0), absolute calibration with water; self-association"}, "[3]": {"target": "TraB N-terminal domain (TraBNT), membrane-extracted form (E. coli (plasmid pKM101)) (UniProt P41067)", "experiment": "SAXS; beamline X33 (EMBL-Hamburg), buffer GFmb; TraBFL 3-13.5 mg/ml, TraBNT 1.3-8.2 mg/ml; molecular mass from forward scattering I(0), calibrated with BSA; self-association"}, "[4]": {"target": "TraB N-terminal domain (TraBNT), membrane-extracted form (E. coli (plasmid pKM101)) (UniProt P41067)", "experiment": "SEC"}, "[5]": {"target": "TraB full-length (TraBFL), the VirB4 homolog encoded by the E. coli pKM101 plasmid, membrane-extracted form (E. coli (plasmid pKM101)) (UniProt P41067)", "experiment": "SAXS; beamline X33 (EMBL-Hamburg), buffer GFmb; TraBFL 3-13.5 mg/ml, TraBNT 1.3-8.2 mg/ml; molecular mass from forward scattering I(0), calibrated with BSA; self-association"}, "[6]": {"target": "TraB full-length (TraBFL), the VirB4 homolog encoded by the E. coli pKM101 plasmid, membrane-extracted form (E. coli (plasmid pKM101)) (UniProt P41067)", "experiment": "SEC"}}}
{"substance": "TraB C-terminal domain (TraBCT) (domain or fragment)", "values": [{"measurement": "stoichiometry N", "setting": "[1]", "result": 2}, {"measurement": "stoichiometry N", "setting": "[2]", "result": 2}]}
{"substance": "TraB N-terminal domain (TraBNT), membrane-extracted form (from UniProt P41067 1-442) (domain or fragment)", "values": [{"measurement": "stoichiometry N", "setting": "[3]", "result": 2}, {"measurement": "stoichiometry N", "setting": "[4]", "result": 2}]}
{"substance": "TraB full-length (TraBFL), the VirB4 homolog encoded by the E. coli pKM101 plasmid, membrane-extracted form (from UniProt P41067 1-475) (natural protein)", "values": [{"measurement": "stoichiometry N", "setting": "[5]", "result": 2}, {"measurement": "stoichiometry N", "setting": "[6]", "result": 2}]}
